Source: the supplement of paper PMC9170038

System: MS2 coat protein
Assay: apparent KD of MS2 coat protein; designed switch direction (-1 OFF switch, 1 ON switch): 1; higher = weaker reporter binding
Summary of the method: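 Three titration conditions were used: no input, 200 uM small-molecule ligand, and an oligonucleotide input. In each, SNAP-549-labelled MS2 coat protein was raised from 0.7 or 1.5 nM, doubling, to 3 µM over designed RNA switches transcribed on Illumina chips by stalled E. coli RNA polymerase. Curve fits of normalised cluster fluorescence gave values whose per-design median over clusters is the apparent KD.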

[1] = input ligand: microRNA oligo, concentration not stated
[2] = Eterna round: R95, input ligand: FMN 200 uM
[3] = Eterna round: R95, input ligand: microRNA oligo, concentration not stated
[4] = Eterna round: R95, input ligand: none

Sequence	apparent KD of MS2 coat protein (input ligand: FMN 200 uM)	apparent KD of MS2 coat protein [1]	apparent KD of MS2 coat protein (input ligand: none)	apparent KD of MS2 coat protein [2]	apparent KD of MS2 coat protein [3]	apparent KD of MS2 coat protein [4]
ACAUGAGAAUUAGGAUAUAUAGUACCUACAUGUGACAUGAGGAUCACCCAUGUGGUAAGUAUGACAUAGAAGGAAUAGAUAUGU [Equivalance 97 - Jieux - Same State NG 2] (Eterna round: R96, puzzle: Same State NG 2)	66.5 nM	42.9 nM	56.8 nM			
CGUCCAGCCUGAGCUGGACAAAAGCAUGUACAUGAGGAUCACCCAUGUUCAUGUACAAGCUUUUUGCUCGUCUUAGU [salish99_208a_r3_073] (puzzle: Sensor for hsa-mir-208a)				557 nM	14.5 nM	646 nM
GUGGUCAGACAUGAGGAUCACCCAUGUGGAAUAAAUAACAGACAGGAUAUAUAAUAUAGGAUAUAGUAGAAGGGUCGAUUGGUG (Eterna round: R96, puzzle: Same State NG 3)		69.7 nM				
UUCACCUUAUUUUACAUGAGGAUCACCCAUGUUUUCCCUACGUAGGAUAUCGAUGCUUGAUUGUUCGAGAAGGACGAUGUAAGU [JR_SSND3_Sub055] (Eterna round: R96, puzzle: Same State NG 3)	33.4 nM	21.7 nM	33.3 nM			
CUUGGGUGGCUGGAGGAUAUUCGAGUGGUAACAUGAGGAUCACCCAUGUGUCGCGCGGUACACGAGGAGAAGGCUGGCGGCCGGC (puzzle: Same State 2)					84.8 nM	
GUGCUCGUGUGAGGAUAUGCUUCCGUUUCGGCUGCAGAAGGUACUAUUAUACAUGAGGAUCACCCAUGUCUCUUUUCUCCGGUG [salish99_SSNG1_r04_913] (Eterna round: R96, puzzle: Same State NG 1)	38.3 nM	27.4 nM	37.2 nM			
AAGAAAGACGCAGGAUAUCAGCGCAAACCGCACUGAGAAGGGUGAGACAUGAGGAUCACCCAUGUAACACGGCAAAACGCCGUG [Lausgeledi] (Eterna round: R96, puzzle: Same State NG 1)	1530 nM	268 nM	219 nM			
UGUUGUAUUACAGGAUAUCUAUUAUUGUUAUUUAGAGAAGGGUAUUCACAUGAGGAUCACCCAUGUAUAUACGAGGAAGUUGUG [JMF's solution 18] (Eterna round: R96, puzzle: Same State NG 1)		39.9 nM				
GCCAGUGCGAAACUCACAUGAGGAUCACCCAUGUGCGUUGAGUAGGAUAUCCGGCUACUCGAGGCGGAGAAGGACUGGGUACUG [Eternabot solution 14] (Eterna round: R96, puzzle: Same State NG 3)	17.4 nM	12.3 nM	17.3 nM			
GGAAAGAGGUAAGGAUAUGCAUGGCGGAGACAUGAGGAUCACCCAUGUUGGAGACGAAAUCUAGGGUAGAAGGUACAAGGAAGG [AK SSNG2-V2-11] (Eterna round: R96, puzzle: Same State NG 2)	133 nM	44.6 nM	128 nM			
GCGAGCGUACUUGCAACAUGAGGAUCACCCAUGUUAACUGGACAGGAUAUGGUACCGUUUCGGUACCAGAAGGGUUCCUCAAUG [JL SSNG3 3.62] (Eterna round: R96, puzzle: Same State NG 3)	295 nM	116 nM	214 nM			
AUAAAACAUGAGGAUCACCCAUGUCAACAAAGUUGAGGAUAUGGGCAAAUAAAAUAAGAACCAGAAGGCGAAUAAU [salish99_ss1_r3_033] (puzzle: Same State 1)				429 nM	193 nM	546 nM
AUAAAACAUGAGGAUCACCCAUGUCAAAAGACAUGAGGAUAUGUGCAAAUAAAAUAAGAAACAGAAGGCAUGAAAA [salish99_ss1_r3_103] (puzzle: Same State 1)				98 nM	105 nM	222 nM
